Results on three molecules are retold here after patent US20020045590A1 (Johns Hopkins, published 2002).

In test [1] the target is T1, neuronal nitric oxide synthase (nNOS) (rat, UniProt P29476 1-1429, limits assumed).
T1 construct: Endogenous rat protein
The test can be described thus: GST fusion protein binding assay with rat hippocampus membrane proteins, immunoblot. Here is the method:
We utilized the yeast two-hybrid system to investigate the effects of halothane on protein interactions within the NMDA receptor signaling complex. The PDZ domain of nNOS or the C-terminus of NMDA receptor subunit 2B (NR2B) was fused in frame with the GAL4 DNA-binding domain in a yeast vector, pGBT9. […] Both yeast vectors were co-transformed into the Y190 yeast strain, which was then grown in the absence or presence of halothane at clinically relevant concentrations. Protein-protein interactions were confirmed by both yeast growth on -Leu/-Trp/-His (-LTH) medium and lacz expression. To confirm the yeast two-hybrid results, the GST fusion protein binding assay was performed. […] After extensive washing, the bound proteins were eluted by boiling in 1 X SDS-PAGE sample buffer and detected by immunoblotting.
A general note: A western blot detects proteins with antibodies after separation by electrophoresis.

Test [2] deals with T2, postsynaptic density-95 (PSD-95)/synapse-associated protein-90 (SAP90) (rat, UniProt P31016 1-724).
T2 construct: Endogenous protein from rat spinal cord PSD fraction, pulled down by co-immunoprecipitation; also called PSD-95/SAP90
The test can be described thus: co-immunoprecipitation from rat spinal cord PSD fraction, immunoblot.

T1 sequence (P29476 whole entry): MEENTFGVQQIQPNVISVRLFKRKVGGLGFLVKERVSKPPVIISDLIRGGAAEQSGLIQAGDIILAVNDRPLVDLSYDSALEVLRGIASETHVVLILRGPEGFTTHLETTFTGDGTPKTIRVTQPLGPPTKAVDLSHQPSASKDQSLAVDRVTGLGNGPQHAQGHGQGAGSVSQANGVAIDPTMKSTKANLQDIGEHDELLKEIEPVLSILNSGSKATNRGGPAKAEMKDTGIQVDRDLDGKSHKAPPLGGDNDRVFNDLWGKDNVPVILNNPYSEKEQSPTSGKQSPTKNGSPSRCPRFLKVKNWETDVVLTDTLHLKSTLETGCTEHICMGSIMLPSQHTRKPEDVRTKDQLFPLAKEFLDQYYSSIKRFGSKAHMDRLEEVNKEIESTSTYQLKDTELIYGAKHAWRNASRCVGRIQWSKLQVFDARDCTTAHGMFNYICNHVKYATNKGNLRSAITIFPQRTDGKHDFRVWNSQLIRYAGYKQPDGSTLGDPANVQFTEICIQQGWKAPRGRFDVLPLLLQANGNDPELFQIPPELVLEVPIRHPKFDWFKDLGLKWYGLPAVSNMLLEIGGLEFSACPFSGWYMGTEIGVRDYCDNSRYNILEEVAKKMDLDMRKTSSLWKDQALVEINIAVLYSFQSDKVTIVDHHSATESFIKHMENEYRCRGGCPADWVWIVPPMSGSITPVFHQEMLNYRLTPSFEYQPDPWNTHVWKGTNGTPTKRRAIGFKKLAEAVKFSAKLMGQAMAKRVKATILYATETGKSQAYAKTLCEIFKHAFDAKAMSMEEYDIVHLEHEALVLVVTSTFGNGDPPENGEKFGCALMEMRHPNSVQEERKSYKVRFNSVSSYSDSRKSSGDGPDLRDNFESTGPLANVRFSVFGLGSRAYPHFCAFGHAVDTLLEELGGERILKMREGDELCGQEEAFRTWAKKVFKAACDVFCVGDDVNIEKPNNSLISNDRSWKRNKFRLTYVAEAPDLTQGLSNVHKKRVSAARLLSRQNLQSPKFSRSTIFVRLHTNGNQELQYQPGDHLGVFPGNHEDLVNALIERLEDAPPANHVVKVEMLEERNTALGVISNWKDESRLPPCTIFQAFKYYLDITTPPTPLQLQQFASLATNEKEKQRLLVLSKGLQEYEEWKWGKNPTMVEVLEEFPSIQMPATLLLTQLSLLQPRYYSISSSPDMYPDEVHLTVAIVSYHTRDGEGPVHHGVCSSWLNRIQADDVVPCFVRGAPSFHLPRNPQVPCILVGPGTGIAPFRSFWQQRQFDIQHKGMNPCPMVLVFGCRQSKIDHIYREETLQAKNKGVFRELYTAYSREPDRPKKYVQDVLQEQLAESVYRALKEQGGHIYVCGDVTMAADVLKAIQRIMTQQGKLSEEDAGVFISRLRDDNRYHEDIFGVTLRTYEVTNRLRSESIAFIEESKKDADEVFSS
T2 sequence (P31016 whole entry): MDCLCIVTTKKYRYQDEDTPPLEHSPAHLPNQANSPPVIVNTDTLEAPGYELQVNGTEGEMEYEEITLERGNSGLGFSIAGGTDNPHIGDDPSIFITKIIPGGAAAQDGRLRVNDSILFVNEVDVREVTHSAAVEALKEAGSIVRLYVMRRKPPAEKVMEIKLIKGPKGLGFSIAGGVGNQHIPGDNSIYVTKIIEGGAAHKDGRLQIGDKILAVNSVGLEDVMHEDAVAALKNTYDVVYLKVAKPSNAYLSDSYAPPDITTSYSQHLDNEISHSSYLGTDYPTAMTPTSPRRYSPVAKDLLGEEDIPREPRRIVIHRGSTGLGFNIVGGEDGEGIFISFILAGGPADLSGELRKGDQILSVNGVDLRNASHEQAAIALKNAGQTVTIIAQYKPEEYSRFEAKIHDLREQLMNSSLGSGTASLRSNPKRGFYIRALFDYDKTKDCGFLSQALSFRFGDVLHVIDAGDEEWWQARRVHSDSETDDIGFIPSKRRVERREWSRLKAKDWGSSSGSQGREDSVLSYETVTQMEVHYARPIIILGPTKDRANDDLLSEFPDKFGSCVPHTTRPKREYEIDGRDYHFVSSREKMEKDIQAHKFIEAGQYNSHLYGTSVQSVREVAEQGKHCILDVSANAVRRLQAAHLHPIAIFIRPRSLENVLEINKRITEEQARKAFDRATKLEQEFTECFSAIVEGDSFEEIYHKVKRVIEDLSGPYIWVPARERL

B1: GST-fusion protein consisting of the second PDZ domain of PSD-93 (other, UniProt Q63622 193-279, looked up)
chain: EIKLFKGPKGLGFSIAGGVGNQHIPGDNSIYVTKIIDGGAAQKDGRLQVGDRLLMVNNYSLEEVTHEEAVAILKNTSDVVYLKVGKP
notes: domain: second PDZ domain; Expressed in bacterial BL21 cells, purified on glutathione-coupled agarose; also called GST-PSD-93; GST-fusion PSD-93; not shown: glutathione S-transferase (GST) tag
For B1, the binding result in test [1] was “binds”.

B2: GST-fusion protein consisting of the second PDZ domain of PSD-95 (other, UniProt P31016 160-246, looked up)
chain: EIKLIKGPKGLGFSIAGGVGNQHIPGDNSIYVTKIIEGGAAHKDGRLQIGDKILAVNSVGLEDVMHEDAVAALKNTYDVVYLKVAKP
notes: domain: second PDZ domain; Expressed in bacterial BL21 cells, purified on glutathione-coupled agarose; also called GST-PSD-95; GST-fusion PSD-95; not shown: glutathione S-transferase (GST) tag
Take B2: the binding result in test [1] is recorded as “binds”.

B3: endothelial NOS (eNOS) (enzyme, rat, UniProt Q62600 2-1202, looked up)
chain: GNLKSVGQEPGPPCGLGLGLGLGLCGKQGPASPAPEPSQAPVPPSPTRPAPDHSPPLTRPPDGPKFPRVKNWEVGSITYDTLSAQAQQDGPCTPRRCLGSLVFPRKLQSRPTQGPSPTEQLLGQARDFINQYYNSIKRSGSQAHEQRLQEVEAEVVATGTYQLRESELVFGAKQAWRNAPRCVGRIQWGKLQVFDARDCRTAQEMFTYICNHIKYATNRGNLRSAITVFPQRYAGRGDFRIWNSQLVRYAGYRQQDGSVRGDPANVEITELCIQHGWTPGNGRFDVLPLLLQAPDEPPELFTLPPELVLEVPLEHPTLEWFAALGLRWYALPAVSNMLLEIGGLEFPAAPFSGWYMSSEIGMRDLCDPHRYNILEDVAVCMDLDTRTTSSLWKDKAAVEINVAVLYSYQLAKVTIVDHHAATASFMKHLENEQKARGGCPADWAWIVPPISGSLTPVFHQEMVNYFLSPAFRYQPDPWKGSAAKGTGITRKKTFKEVANAVKISASLMGTVMAKRVKATILYGSETGRAQSYAQQLGRLFRKAFDPRVLCMDEYDVVSLEHEALVLVVTSTFGNGDPPENGESFAAALMEMSGPYNSSPRPEQHKSYKIRFNSVSCSDPLVSSWRRKRKESSNTDSAGALGTLRFCVFGLGSRAYPHFCAFARAVDTRLEELGGERLLQLGQGDELCGQEEAFRGWAQAAFQAACETFCVGEDAKAAARDIFSPKRSWKRQRYRLSTQAESLQLLPRLTHVHRRKMFQATILSVENLQSSKSTRATILVRLDTGSQEGLQYQPGDHIGVCPPNRPGLVEALLSRVEDPPPSTEPVAVEQLEKGSPGGPPPGWVRDPRLPPCTLRQALTYFLDITSPPSPRLLRLLSTLAEESSEQQELEALSQDPRRYEEWKWFRCPTLLEVLEQFPSVALPAPLILTQLPLLQPRYYSVSSAPSAHPGEIHLTVAVLAYRTQDGLGPLHYGVCSTWMSQLKAGDPVPCFIRGAPSFRLPPDPNLPCILVGPGTGIAPFRGFWQDRLHDIEIKGLQPAPMTLVFGCRCSQLDHLYRDEVLDAQQRGVFGQVLTAFSRDPGSPKTYVQDLLRTELAAEVHRVLCLEQGHMFVCGDVTMATSVLQTVQRILATEGSMELDEAGDVIGVLRDQQRYHEDIFGLTLRTQEVTSRIRTQSFSLQERQLRGAVPWSFDPPTQETPGS
notes: Endogenous rat protein
As to B3, the binding result in test [2] is given as “no binding”.
